Experimental data taken from the supplement of paper PMC10065799, “High-throughput profiling of sequence recognition by tyrosine kinases and SH2 domains using bacterial peptide display” (eLife, 2023).

How the values were obtained:
c-Abl (mouse) = assay: phosphorylation enrichment, bacterial display (enrichment ratio); higher = better substrate or ligand; peptides without Tyr show the background
Fyn = Fyn (UniProt P06241); assay: as above
MERTK = MERTK (UniProt Q12866); assay: as above
Fer (mouse) = assay: as above
EPHB2 = EPHB2 (UniProt P29323); assay: as above
Jak2 = Jak2 (UniProt O60674); assay: as above
Hck = Hck (UniProt P08631); assay: as above
FGFR1 = FGFR1 (UniProt P11362); assay: as above
FGFR3 = FGFR3 (UniProt P22607); assay: as above
AncSZ = assay: as above
Fes = Fes (UniProt P07332); assay: as above
c-Src = assay: as above
EPHB1 = EPHB1 (UniProt P54762); assay: as above
Grb2 SH2 = Grb2 SH2 (UniProt P62993); assay: SH2 binding enrichment of the phosphorylated peptide, bacterial display (enrichment ratio); higher = better substrate or ligand; peptides without Tyr show the background
SHP2-C SH2 = assay: as above
c-Src SH2 = assay: as above
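For SH2 binding enrichment of the phosphorylated peptide, bacterial display in this document: peptide library displayed on the E. coli surface as eCPX fusions, selected cells deep-sequenced, score is each peptide's frequency after selection divided by its frequency in the input.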
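For phosphorylation enrichment, bacterial display in this document: 11-residue human phosphosite peptides and single-mutation variants displayed on the E. coli surface, counted by deep sequencing, each peptide's frequency after selection divided by its frequency in the unselected input library; frequency after pTyr selection over input frequency; kinase dosed for 20-30% of maximal phosphorylation in three min.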

Sequence of Jak2 (O60674 whole entry, looked up): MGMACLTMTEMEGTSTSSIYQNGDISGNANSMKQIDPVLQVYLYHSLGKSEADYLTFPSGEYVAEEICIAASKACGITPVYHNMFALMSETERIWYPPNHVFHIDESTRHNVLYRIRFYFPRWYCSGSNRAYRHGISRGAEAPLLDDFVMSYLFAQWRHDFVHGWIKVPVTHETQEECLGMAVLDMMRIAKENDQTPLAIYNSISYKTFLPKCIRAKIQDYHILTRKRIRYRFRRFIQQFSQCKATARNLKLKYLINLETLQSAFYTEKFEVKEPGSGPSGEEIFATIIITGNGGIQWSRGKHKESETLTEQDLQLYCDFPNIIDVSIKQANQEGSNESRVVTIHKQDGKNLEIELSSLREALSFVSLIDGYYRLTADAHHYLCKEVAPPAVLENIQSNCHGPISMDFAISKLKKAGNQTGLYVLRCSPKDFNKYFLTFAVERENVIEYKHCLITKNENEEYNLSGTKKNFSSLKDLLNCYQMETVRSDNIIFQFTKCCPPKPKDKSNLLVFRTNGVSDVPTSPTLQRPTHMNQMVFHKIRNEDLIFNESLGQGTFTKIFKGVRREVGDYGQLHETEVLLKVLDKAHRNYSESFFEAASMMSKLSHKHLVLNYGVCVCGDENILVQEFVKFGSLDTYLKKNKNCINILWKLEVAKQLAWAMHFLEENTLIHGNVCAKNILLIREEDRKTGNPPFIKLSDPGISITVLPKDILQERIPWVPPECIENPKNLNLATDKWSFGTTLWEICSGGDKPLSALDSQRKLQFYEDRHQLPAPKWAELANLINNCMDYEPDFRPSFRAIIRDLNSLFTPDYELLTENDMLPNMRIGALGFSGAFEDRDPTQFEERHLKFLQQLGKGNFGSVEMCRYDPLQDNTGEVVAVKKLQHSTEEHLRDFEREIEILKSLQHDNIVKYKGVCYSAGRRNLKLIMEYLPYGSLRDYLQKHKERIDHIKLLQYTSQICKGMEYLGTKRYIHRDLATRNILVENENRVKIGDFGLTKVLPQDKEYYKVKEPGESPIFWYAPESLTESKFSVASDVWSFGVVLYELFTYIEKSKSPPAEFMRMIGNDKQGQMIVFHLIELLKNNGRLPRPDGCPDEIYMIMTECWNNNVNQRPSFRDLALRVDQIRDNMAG
Sequence of Grb2 SH2 (P62993 whole entry, looked up): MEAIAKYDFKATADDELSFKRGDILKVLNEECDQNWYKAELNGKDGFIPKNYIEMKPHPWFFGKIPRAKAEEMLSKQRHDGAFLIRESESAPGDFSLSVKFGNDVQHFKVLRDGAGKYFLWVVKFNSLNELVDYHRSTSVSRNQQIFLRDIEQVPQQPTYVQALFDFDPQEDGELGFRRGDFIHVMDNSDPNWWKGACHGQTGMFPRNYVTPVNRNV
Sequence of MERTK (Q12866 whole entry, looked up): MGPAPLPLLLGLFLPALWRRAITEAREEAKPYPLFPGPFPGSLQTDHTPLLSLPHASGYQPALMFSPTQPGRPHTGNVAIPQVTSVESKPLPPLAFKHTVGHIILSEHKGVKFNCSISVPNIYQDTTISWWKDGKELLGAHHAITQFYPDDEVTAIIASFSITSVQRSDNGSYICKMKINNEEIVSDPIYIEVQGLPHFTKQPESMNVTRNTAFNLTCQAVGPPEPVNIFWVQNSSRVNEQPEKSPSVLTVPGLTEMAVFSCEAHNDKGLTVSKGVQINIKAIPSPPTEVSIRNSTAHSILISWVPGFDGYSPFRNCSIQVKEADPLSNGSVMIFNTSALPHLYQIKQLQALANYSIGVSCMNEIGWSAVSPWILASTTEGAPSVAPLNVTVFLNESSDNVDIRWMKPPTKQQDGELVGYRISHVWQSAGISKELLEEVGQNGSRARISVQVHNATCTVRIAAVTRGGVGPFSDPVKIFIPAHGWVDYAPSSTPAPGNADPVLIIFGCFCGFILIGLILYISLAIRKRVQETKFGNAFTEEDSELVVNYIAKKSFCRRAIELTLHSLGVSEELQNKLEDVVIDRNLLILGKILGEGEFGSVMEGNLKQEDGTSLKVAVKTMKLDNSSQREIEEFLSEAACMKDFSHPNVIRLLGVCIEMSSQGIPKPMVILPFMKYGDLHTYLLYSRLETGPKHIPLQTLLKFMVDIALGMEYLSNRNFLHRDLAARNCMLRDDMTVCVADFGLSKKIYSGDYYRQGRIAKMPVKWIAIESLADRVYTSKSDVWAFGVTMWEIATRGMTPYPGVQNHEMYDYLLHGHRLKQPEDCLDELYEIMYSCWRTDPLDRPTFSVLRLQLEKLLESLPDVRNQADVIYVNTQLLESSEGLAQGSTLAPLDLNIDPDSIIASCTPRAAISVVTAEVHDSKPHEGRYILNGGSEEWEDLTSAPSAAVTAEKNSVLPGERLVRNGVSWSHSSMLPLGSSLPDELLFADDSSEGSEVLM
Sequence of Fyn (P06241 whole entry, looked up): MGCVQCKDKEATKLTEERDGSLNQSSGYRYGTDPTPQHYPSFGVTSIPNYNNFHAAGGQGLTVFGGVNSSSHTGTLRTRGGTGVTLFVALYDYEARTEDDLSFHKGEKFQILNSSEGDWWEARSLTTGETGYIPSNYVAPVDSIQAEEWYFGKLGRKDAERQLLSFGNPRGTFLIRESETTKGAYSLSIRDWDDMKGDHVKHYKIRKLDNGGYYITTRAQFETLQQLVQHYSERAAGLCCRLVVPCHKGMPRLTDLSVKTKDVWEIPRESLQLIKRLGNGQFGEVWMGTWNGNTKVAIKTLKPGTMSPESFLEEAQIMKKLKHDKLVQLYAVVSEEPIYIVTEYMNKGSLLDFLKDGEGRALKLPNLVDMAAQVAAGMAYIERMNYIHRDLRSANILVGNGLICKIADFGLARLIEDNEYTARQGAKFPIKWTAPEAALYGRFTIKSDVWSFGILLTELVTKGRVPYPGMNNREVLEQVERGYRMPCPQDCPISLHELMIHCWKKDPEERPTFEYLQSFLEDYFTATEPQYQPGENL
Sequence of EPHB2 (P29323 whole entry, looked up): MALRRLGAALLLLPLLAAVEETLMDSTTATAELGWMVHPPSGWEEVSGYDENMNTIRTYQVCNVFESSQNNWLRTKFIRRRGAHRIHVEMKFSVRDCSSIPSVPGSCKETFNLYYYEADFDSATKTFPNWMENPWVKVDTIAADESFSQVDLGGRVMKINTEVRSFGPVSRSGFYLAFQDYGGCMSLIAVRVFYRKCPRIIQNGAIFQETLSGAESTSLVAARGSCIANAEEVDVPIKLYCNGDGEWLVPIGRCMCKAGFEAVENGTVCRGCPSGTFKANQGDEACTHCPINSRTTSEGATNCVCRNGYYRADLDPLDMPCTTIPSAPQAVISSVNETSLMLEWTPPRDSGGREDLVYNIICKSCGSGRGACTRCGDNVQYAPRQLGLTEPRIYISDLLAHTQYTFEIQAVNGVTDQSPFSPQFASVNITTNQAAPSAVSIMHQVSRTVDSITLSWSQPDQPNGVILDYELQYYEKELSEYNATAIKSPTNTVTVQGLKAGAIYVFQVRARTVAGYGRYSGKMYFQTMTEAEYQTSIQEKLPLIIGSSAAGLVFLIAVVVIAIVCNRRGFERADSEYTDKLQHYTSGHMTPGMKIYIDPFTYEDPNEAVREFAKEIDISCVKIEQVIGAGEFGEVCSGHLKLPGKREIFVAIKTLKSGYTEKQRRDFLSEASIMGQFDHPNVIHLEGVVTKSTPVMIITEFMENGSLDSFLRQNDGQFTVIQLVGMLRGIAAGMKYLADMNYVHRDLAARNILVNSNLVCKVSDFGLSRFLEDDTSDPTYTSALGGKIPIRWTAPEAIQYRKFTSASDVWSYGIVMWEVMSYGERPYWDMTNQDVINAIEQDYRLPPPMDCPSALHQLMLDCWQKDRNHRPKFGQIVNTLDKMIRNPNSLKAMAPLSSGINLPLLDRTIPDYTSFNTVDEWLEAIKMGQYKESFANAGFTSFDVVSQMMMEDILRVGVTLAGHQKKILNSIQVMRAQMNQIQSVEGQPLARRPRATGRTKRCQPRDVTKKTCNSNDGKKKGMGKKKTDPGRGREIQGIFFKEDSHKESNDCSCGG
Sequence of Fes (P07332 whole entry, looked up): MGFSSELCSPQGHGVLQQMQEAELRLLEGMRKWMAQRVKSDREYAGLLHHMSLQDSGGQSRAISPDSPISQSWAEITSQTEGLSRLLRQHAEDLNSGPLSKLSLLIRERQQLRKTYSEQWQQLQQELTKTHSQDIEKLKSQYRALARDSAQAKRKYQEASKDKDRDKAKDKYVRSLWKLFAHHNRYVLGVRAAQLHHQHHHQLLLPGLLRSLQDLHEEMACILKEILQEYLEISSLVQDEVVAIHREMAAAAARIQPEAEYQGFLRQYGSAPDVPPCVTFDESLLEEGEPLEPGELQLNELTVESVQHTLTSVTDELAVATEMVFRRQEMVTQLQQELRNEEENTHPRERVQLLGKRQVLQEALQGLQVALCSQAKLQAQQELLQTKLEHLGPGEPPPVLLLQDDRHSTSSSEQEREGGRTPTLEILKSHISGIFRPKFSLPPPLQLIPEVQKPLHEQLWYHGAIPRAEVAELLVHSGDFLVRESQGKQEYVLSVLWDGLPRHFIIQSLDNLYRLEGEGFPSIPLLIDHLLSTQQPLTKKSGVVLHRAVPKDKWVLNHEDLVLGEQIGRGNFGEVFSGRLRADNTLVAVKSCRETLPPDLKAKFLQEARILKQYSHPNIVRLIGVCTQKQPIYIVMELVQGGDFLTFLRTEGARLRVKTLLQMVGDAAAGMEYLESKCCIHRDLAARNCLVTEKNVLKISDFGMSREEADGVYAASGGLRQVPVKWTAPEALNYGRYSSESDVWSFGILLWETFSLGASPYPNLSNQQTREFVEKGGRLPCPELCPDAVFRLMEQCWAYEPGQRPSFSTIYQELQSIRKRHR

| Sequence | phosphorylation enrichment (c-Abl (mouse)) | phosphorylation enrichment (Fyn) | phosphorylation enrichment (MERTK) | phosphorylation enrichment (Fer (mouse)) | phosphorylation enrichment (EPHB2) | phosphorylation enrichment (Jak2) | phosphorylation enrichment (Hck) | phosphorylation enrichment (FGFR1) | phosphorylation enrichment (FGFR3) | phosphorylation enrichment (AncSZ) | phosphorylation enrichment (Fes) | phosphorylation enrichment (c-Src) | phosphorylation enrichment (EPHB1) | SH2 binding enrichment (Grb2 SH2) | SH2 binding enrichment (SHP2-C SH2) | SH2 binding enrichment (c-Src SH2) |
| --- | --- | --- | --- | --- | --- | --- | --- | --- | --- | --- | --- | --- | --- | --- | --- | --- |
| SYMVRYNQPRV [GRIN2D_Y736] | 0.694 | 0.38 | 0.45 | 0.419 | 0.51 | 0.651 | 0.385 | 0.561 | 0.523 | 0.721 | 0.734 | 0.432 | 0.46 | 0.871 | 1.25 | 1.11 |
| TDLAFYLVCKG [ASL_Y376_R379C_YF] | 1.14 | 0.411 | 0.446 | 0.647 | 0.593 | 1.57 | 0.547 | 0.551 | 0.94 | 1.31 | 1.7 | 0.48 | 0.79 | 0.732 | 0.461 | 0.388 |
| TEAEPYFCSLR [NPHS1_Y1138_R1140C_YF] | 0.814 | 0.544 | 0.48 | 0.466 | 0.615 | 1.51 | 0.576 | 0.551 | 0.698 | 1.11 | 1.22 | 0.932 | 0.565 | 0.848 | 0.647 | 0.638 |
| TEAGDYKLCFD [TMED1_Y103] | 0.888 | 0.598 | 0.496 | 0.619 | 0.65 | 1.27 | 0.564 | 0.653 | 1.02 | 1.38 | 1.35 | 0.54 | 0.773 | 0.778 | 0.636 | 0.423 |
| TEALYYTDDPA [ADPRS_Y75_T79P] | 1.09 | 1.91 | 6.2 | 1.92 | 0.882 | 1.06 | 1.79 | 5.2 | 5.62 | 1.97 | 1.82 | 2.59 | 1.2 | 0.513 | 0.48 | 0.797 |
| TEDPEYDVQSK [PTCHD3_Y335] | 0.679 | 0.616 | 0.358 | 0.564 | 0.661 | 0.936 | 0.669 | 0.689 | 0.738 | 1.18 | 1.01 | 0.435 | 0.521 | 0.913 | 0.871 | 0.557 |
| TEYSQYMRRKN [MAX_Y73_I71S] | 0.418 | 0.536 | 0.558 | 0.443 | 0.563 | 0.507 | 0.562 | 0.548 | 0.508 | 0.674 | 0.622 | 0.523 | 0.476 | 0.653 | 0.411 | 0.397 |
| TGNPAYRSFSN [IL4R_Y497_A492T] | 0.441 | 0.369 | 0.326 | 0.326 | 0.328 | 0.422 | 0.404 | 0.406 | 0.457 | 0.595 | 0.584 | 0.373 | 0.328 | 0.791 | 0.65 | 0.442 |
| THQKSYQPGRK [CEFIP_Y210_N208K] | 0.35 | 0.371 | 0.308 | 0.464 | 0.432 | 0.349 | 0.52 | 0.433 | 0.362 | 0.437 | 0.472 | 0.322 | 0.273 | 0.887 | 0.408 | 0.514 |
| TIMTNYNPNYC [ALK_Y1092_D1091N] | 0.558 | 0.565 | 0.407 | 0.46 | 0.5 | 0.639 | 0.548 | 0.545 | 0.549 | 0.758 | 0.901 | 0.45 | 0.619 | 1.12 | 0.715 | 0.591 |
| TKGMIYGGGGG [PSME1_Y249] | 0.613 | 0.49 | 0.433 | 0.431 | 0.416 | 0.501 | 0.556 | 0.457 | 0.377 | 0.494 | 0.505 | 0.535 | 0.339 | 1.05 | 0.812 | 0.483 |
| TLAHKYHGGGG [HBB_Y146_A141T] | 1.03 | 0.497 | 0.577 | 0.436 | 0.398 | 1.1 | 0.681 | 0.611 | 0.494 | 0.652 | 0.973 | 0.675 | 0.46 | 0.567 | 0.67 | 0.558 |
| TLMNAYSSRCH [KIF11_Y231_S235C] | 0.738 | 0.571 | 0.448 | 0.535 | 0.553 | 0.776 | 0.496 | 0.492 | 0.637 | 1 | 0.836 | 0.471 | 0.602 | 0.943 | 0.726 | 0.581 |
| TLQSMYGCDVG [HLA-B_Y123] | 0.639 | 0.552 | 0.406 | 0.612 | 0.71 | 0.843 | 0.525 | 0.497 | 0.667 | 0.935 | 0.979 | 0.661 | 0.598 | 1.08 | 0.812 | 0.559 |
| TMEDSYRKQVV [KRAS_Y40_I36M] | 0.594 | 0.273 | 0.411 | 0.403 | 0.367 | 0.663 | 0.425 | 0.366 | 0.595 | 0.69 | 0.774 | 0.38 | 0.556 | 0.728 | 0.48 | 0.356 |
| TPIYPYLLPKS [PLD2_Y580_T577I] | 0.65 | 0.435 | 1.8 | 0.426 | 0.559 | 1.59 | 0.547 | 0.812 | 0.698 | 0.837 | 0.776 | 0.624 | 0.578 | 0.943 | 0.855 | 1.17 |
| TRDTDYQMTKR [ADA_Y308_L304R] | 0.501 | 0.377 | 0.344 | 0.359 | 0.446 | 0.525 | 0.373 | 0.394 | 0.7 | 0.639 | 0.646 | 0.31 | 0.383 | 0.821 | 0.447 | 0.544 |
| TRNVRYLTLDI [AKR1C2_Y305_N300T] | 0.557 | 0.407 | 0.372 | 0.429 | 0.521 | 0.684 | 0.487 | 0.421 | 0.634 | 0.633 | 0.887 | 0.384 | 0.787 | 0.985 | 6.49 | 1.73 |
| TRSFKYLLLSM [NF1_Y491_YF] | 0.706 | 0.386 | 0.399 | 0.38 | 0.51 | 0.977 | 0.44 | 0.43 | 0.548 | 1.12 | 1.07 | 0.426 | 0.663 | 1.05 | 1.21 | 1.05 |
| TSAEGYQDVRD [ABLIM1_Y439_P434T] | 0.766 | 0.679 | 0.517 | 0.551 | 0.774 | 1.16 | 0.691 | 0.77 | 0.659 | 1.17 | 1.36 | 0.602 | 0.73 | 0.909 | 0.779 | 4.85 |
| TSFSGYRCHRH [NKAPL_Y94_Y96C_YF] | 0.562 | 0.419 | 0.469 | 0.464 | 0.486 | 0.718 | 0.469 | 0.552 | 0.45 | 0.703 | 0.727 | 0.414 | 0.576 | 1.01 | 0.901 | 0.661 |
| TSKLNYLDPRI [TOP1_Y723] | 0.407 | 0.371 | 0.359 | 0.241 | 1.7 | 0.506 | 0.3 | 0.919 | 0.585 | 0.534 | 0.599 | 0.405 | 4.39 | 0.813 | 1.09 | 0.554 |
| TTANRYLKVSD [MYOM2_Y871] | 0.526 | 0.404 | 0.409 | 0.484 | 0.432 | 0.492 | 0.607 | 0.453 | 0.41 | 0.546 | 0.641 | 0.486 | 0.38 | 1.2 | 0.731 | 0.643 |
| TTIVSYRASQP [MKI67_Y1737_K1734I] | 0.654 | 0.481 | 0.438 | 0.457 | 0.305 | 0.6 | 0.481 | 0.441 | 0.477 | 0.591 | 0.663 | 0.539 | 0.454 | 0.688 | 0.74 | 0.532 |
| TTPGPHRSIYF [MPG_Y71_Y71H] | 0.538 | 0.359 | 0.479 | 0.396 | 0.444 | 0.357 | 0.411 | 0.579 | 0.526 | 0.569 | 0.577 | 0.458 | 0.355 | 0.71 | 0.484 | 0.503 |
| TVFENYVADIE [RHOA_Y42] | 0.861 | 0.58 | 0.631 | 0.513 | 0.664 | 1.46 | 0.588 | 0.642 | 0.925 | 1.42 | 1.15 | 0.521 | 0.647 | 0.798 | 0.618 | 0.541 |
| TVLEPYTDPFF [ZC3H18_Y367_A368T_YF] | 0.685 | 0.535 | 0.519 | 0.438 | 0.429 | 1.09 | 0.501 | 1.29 | 0.909 | 1.25 | 1.09 | 0.514 | 0.463 | 0.791 | 0.649 | 1.98 |
| TYTVSYLPDMS [FLNC_Y1602] | 0.55 | 0.568 | 0.733 | 0.491 | 0.705 | 0.903 | 0.582 | 0.512 | 0.656 | 1.05 | 0.874 | 0.561 | 0.528 | 0.792 | 0.623 | 0.375 |
| VATRWYRSPEP [CDKL5_Y177_L182P] | 0.397 | 0.525 | 0.421 | 0.379 | 0.537 | 0.565 | 0.431 | 0.482 | 0.523 | 0.638 | 0.719 | 0.394 | 0.55 | 0.796 | 0.629 | 0.422 |
